Results taken from paper PMC6346213.
Several values for one entry are separate records, joined by “and”; a condition that tells them apart may be missing. Equal values may be shown once.

Molecular target: COP9 signalosome (CSN) holo-complex (human (endogenous in HEK293)) (UniProt Q13098)
Assay: SEC; co-fractionation of native HEK293 lysate (freeze-thaw, 0.5% NP-40); Yarra-SEC-4000, 50 mM HEPES pH 7.5, 150 mM NaCl, 4°C; 81 fractions quantified by SWATH-MS; co-elution of protein profiles scored with CCprofiler (5% FDR) and by manual inspection

UniProt Q13098, sequence (Q13098 whole entry, looked up, one chain of several): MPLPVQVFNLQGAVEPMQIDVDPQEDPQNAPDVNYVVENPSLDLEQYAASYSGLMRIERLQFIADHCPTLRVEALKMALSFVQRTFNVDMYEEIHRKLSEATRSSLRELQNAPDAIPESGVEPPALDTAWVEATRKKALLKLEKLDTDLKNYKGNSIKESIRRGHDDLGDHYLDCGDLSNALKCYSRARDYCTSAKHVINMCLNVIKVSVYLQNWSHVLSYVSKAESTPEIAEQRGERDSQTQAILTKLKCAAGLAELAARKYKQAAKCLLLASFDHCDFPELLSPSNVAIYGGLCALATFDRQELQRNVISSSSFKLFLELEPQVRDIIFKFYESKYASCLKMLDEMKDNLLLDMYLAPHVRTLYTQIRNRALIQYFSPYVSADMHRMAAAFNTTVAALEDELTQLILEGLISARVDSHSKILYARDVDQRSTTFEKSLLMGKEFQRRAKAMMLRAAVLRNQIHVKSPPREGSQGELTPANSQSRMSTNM

substrate-bound fraction of CSN holo-complex: 25% and 22%
Substance: E3-CRL substrate of the COP9 signalosome (components CUL4A and DDB2) (from UniProt Q13619 1-759; Q92466 1-427) (complex)
